Assay results from publication PMC5025857, “Redox-dependent Regulation of Gluconeogenesis by a Novel Mechanism Mediated by a Peroxidatic Cysteine of Peroxiredoxin” (Scientific Reports, 2016).
Where a chain is given by its changes, count along the chain named. Values belong to the binder of their own block, whether it stands above or below them.

Target: T1, HA-tagged Pyk1 (HA-Pyk1) (S. cerevisiae, UniProt P00549 1-500)
T1 construct: Pyk1 (Cdc19), pyruvate kinase of S. cerevisiae; also called pRS313-HA-PYK1; source: S. cerevisiae (pyk1∆ tsa1/2∆ or pyk1∆ cells) carrying pRS313-HA-PYK1, in lysate (whole cell extract)
T1 sequence (looked up): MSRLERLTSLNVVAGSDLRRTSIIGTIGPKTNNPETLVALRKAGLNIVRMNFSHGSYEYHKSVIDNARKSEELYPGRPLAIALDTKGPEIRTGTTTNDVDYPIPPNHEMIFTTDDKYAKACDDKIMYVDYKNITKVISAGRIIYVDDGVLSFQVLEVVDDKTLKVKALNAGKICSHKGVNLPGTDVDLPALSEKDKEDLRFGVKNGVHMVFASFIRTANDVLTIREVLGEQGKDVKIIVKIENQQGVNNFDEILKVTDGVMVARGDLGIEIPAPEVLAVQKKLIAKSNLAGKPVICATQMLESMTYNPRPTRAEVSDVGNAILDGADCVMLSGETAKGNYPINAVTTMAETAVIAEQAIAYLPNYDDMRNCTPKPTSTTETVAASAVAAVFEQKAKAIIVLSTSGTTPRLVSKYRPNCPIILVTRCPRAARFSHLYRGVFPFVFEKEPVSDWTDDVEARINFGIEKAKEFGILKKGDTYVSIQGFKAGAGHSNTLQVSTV
Experiment: co-IP; HA-Pyk1 precipitated with anti-HA antibody beads from yeast whole cell extract (400 μg; IP buffer: 100 mM MES pH 7.0, 200 mM KCl, 15 mM MgCl2, 5% glycerol, 0.15% NP-40, 50 mM NEM; 4 °C, 3 h); immunoblot with anti-Tsa1, anti-Pyk1 and anti-Prx-SO2/SO3; cells from glucose (SDM) or ethanol (SEM -Trp) medium, exponential, diauxic shift or early stationary phase, with or without 1, 3 or 10 mM H2O2
Conditions: partners not purified

fold decrease of Pyk1-bound Tsa1 against wild-type Tsa1 (ethanol medium): ~3 fold
B1: Tsa1^C48T (enzyme, S. cerevisiae, UniProt P34760 1-196, looked up)
chain: MVAQVQKQAPTFKKTAVVDGVFDEVSLDKYKGKYVVLAFIPLAFTFVTPTEIIAFSEAAKKFEEQGAQVLFASTDSEYSLLAWTNIPRKEGGLGPINIPLLADTNHSLSRDYGVLIEEEGVALRGLFIIDPKGVIRHITINDLPVGRNVDEALRLVEAFQWTDKNGTVLPCNWTPGAATIKPTVEDSKEYFEAANK
notes: Tsa1 of S. cerevisiae with the peroxidatic cysteine Cys48 mutated to Thr; source: S. cerevisiae pyk1∆ tsa1/2∆ cells carrying an expression vector (pRS315), in lysate

stoichiometry N: 8 molecules of Tsa1^C171T for each tetramer of Pyk1
B2: Tsa1^C171T (enzyme, S. cerevisiae, UniProt P34760 1-196, looked up)
chain: B1 chain with T48C, C171T
notes: Tsa1 of S. cerevisiae with the resolving cysteine Cys171 mutated to Thr; source: S. cerevisiae tsa1/2Δ cells carrying an expression vector (pRS315), in lysate
